The record followed here is the RNAGym collection of RNA variant scans (doi:10.7554/elife.90254).

The labels stand for the following.
B1: LINE1-full (parent)
chain: UACGUAGGUGGUUUUCCCCUGAUAGUGCUAAGGGGGCCUGGAAGUUUGGACUGGGCAGAGCUCAACACAGCGUGGCAAAGUGGCUGUGGCUAGACUGCCUCUCUGGAUUCCUCGUCACUCAGCAGGGCAUCUCUGAGAGAAAUGCC

This data set covers variants of B1. Nature of the data set: self-cleavage, relative activity (ratio to wild type); higher = more cleavage; in vitro, sequencing; the parent is a self-cleaving ribozyme.
On to UACGUAGGUGGUUUUCCCCUGAUAGUGCUAAGGGGGCCUGGAAGUUUGGACUGGGCAGAGCUCAACACAGCGUGGCAAAGUGGCUGUGGCUAGACUGCCCCUCUGGAUUCCUCGUCACUCAGCAGGGCAUCUCUGAGAGGAAUGCC, for which the self-cleavage was found to be 1.79.

For the variant UACGUAGGUGGUUUUCCCCUGAUAGUGCUAAGGGGGCCUGGAAGUUUGGACUGGGCAGAGCUCAACACAGCGUGGCAAAGUGGCUGUGGCUAGACUGCCCCUCUGGAUUCCUCGUCACUCAGCAGGGCAUCUCUGAGAGUAAUGCC, the self-cleavage came out at 1.82.

On to UACGUAGGUGGUUUUCCCCUGAUAGUGCUAAGGGGGCCUGGAAGUUUGGACUGGGCAGAGCUCAACACAGCGUGGCAAAGUGGCUGUGGCUAGACUGCCACUCUGGAUUCCUCGUCACUCAGCAGGGCAUCUUUGAGAGAAAUGCC, for which the self-cleavage was 0.54.

On to UACGUAGGUGGUUUUCCCCUGAUAGUGCUAAGGGGGCCUGGAAGUUUGGACUGGGCAGAGCUCAACACAGCGUGGCAAAGUGGCUGUGGCUAGACUGCCACUUUGGAUUCCUCGUCACUCAGCAGGGCAUCUCUGAGAGAAAUGCC, for which the self-cleavage was 0.44.

As to UACGUAGGUGGUUUUCCCCUGAUAGUGCUAAGGGGGCCUGGAAGUUUGGACUGGGCAGAGCUCAACACAGCGUGGCAAAGUGGCUGUGGCUAGACUGCCCCUCUGGAUUCCUCGUCACUCAGCAGGGCAUCUCUGUGAGAAAUGCC, the self-cleavage came to 1.73.

On to UACGUAGGUGGUUUUCCCCUGAUAGUGCUAAGGGGGCCUGGAAGUUUGGACUGGGCAGAGCUCAACACAGCGUGGCAAAGUGGCUGUGGCUAGACUGCCCCUCUGGAUUCCUCGUCACUCAGCAGGGCAUCUCUGGGAGAAAUGCC, for which the self-cleavage was found to be 1.91.

Consider UACGUAGGUGGUUUUCCCCUGAUAGUGCUAAGGGGGCCUGGAAGUUUGGACUGGGCAGAGCUCAACACAGCGUGGCAAAGUGGCUGUGGCUAGACUGCCACUCUGGAUUCCUCGUCACUCAGCAGGGCAUCCCUGAGAGAAAUGCC, for which the self-cleavage came out at 0.65.

With UACGUAGGUGGUUUUCCCCUGAUAGUGCUAAGGGGGCCUGGAAGUUUGGACUGGGCAGAGCUCAACACAGCGUGGCAAAGUGGCUGUGGCUAGACUGCCCCUCUGGAUUCCUCGUCACUCAGCAGGGCUUCUCUGAGAGAAAUGCC, the self-cleavage was determined as 1.92.

On to UACGUAGGUGGUUUUCCCCUGAUAGUGCUAAGGGGGCCUGGAAGUUUGGACUGGGCAGAGCUCAACACAGCGUGGCAAAGUGGCUGUGGCUAGACUGCCCCUCUGGAUUCCUCGUCACUCAGCAGGGCAUCUCUGAGAGAUAUGCC, for which the self-cleavage turned out to be 1.08.

Consider UACGUAGGUGGUUUUCCCCUGAUAGUGCUAAGGGGGCCUGGAAGUUUGGACUGGGCAGAGCUCAACACAGCGUGGCAAAGUGGCUGUGGCUAGACUGCCACUCUGGAUUCCUCGUUACUCAGCAGGGCAUCUCUGAGAGAAAUGCC, for which the self-cleavage turned out to be 0.4.

As for UACGUAGGUGGUUUUCCCCUGAUAGUGCUAAGGGGGCCUGGAAGUUUGGACUGGGCAGAGCUCAACACAGCGUGGCAAAGUGGCUGUGGCUAGACUGCCACUCUGGAUUCCUCGUCACCCAGCAGGGCAUCUCUGAGAGAAAUGCC, the self-cleavage worked out at 1.23.

Consider UACGUAGGUGGUUUUCCCCUGAUAGUGCUAAGGGGGCCUGGAAGUUUGGACUGGGCAGAGCUCAACACAGCGUGGCAAAGUGGCUGUGGCUAGACUGCCCCUCUGGAUUCCUCGUCACUCAGCAGGGCAUCUCUGAGAGAAAUGUC, for which the self-cleavage is 2.29.

As to UACGUAGGUGGUUUUCCCCUGAUAGUGCUAAGGGGGCCUGGAAGUUUGGACUGGGCAGAGCUCAACACAGCGUGGCAAAGUGGCUGUGGCUAGACUGCCCCUCUGGAUUCCUCGUCACUCACCAGGGCAUCUCUGAGAGAAAUGCC, the self-cleavage stood at 2.12.

On to UACGUAGGUGGUUUUCCCCUGAUAGUGCUAAGGGGGCCUGGAAGUUUGGACUGGGCAGAGCUCAACACAGCGUGGCAAAGUGGCUGUGGCUAGACUGCCCCUCUGGAUUCCUCGUCACUCAGCAGGGCAUCUCUGAGAGAAAUGCA, for which the self-cleavage was found to be 1.75.

Consider UACGUAGGUGGUUUUCCCCUGAUAGUGCUAAGGGGGCCUGGAAGUUUGGACUGGGCAGAGCUCAACACAGCGUGGCAAAGUGGCUGUGGCUAGACUGCCACUCUGGAUUCCUCGUCACUCAGCAAGGCAUCUCUGAGAGAAAUGCC, for which the self-cleavage was found to be 1.05.

Take UACGUAGGUGGUUUUCCCCUGAUAGUGCUAAGGGGGCCUGGAAGUUUGGACUGGGCAGAGCUCAACACAGCGUGGCAAAGUGGCUGUGGCUAGACUGCCCCUCUUGAUUCCUCGUCACUCAGCAGGGCAUCUCUGAGAGAAAUGCC: the self-cleavage is 2.13.

On to UACGUAGGUGGUUUUCCCCUGAUAGUGCUAAGGGGGCCUGGAAGUUUGGACUGGGCAGAGCUCAACACAGCGUGGCAAAGUGGCUGUGGCUAGACUGCCCCUCUGGUUUCCUCGUCACUCAGCAGGGCAUCUCUGAGAGAAAUGCC, for which the self-cleavage came to 1.21.

Take UACGUAGGUGGUUUUCCCCUGAUAGUGCUAAGGGGGCCUGGAAGUUUGGACUGGGCAGAGCUCAACACAGCGUGGCAAAGUGGCUGUGGCUAGACUGCCCCUCUGGGUUCCUCGUCACUCAGCAGGGCAUCUCUGAGAGAAAUGCC: the self-cleavage came to 1.73.

Turning to UACGUAGGUGGUUUUCCCCUGAUAGUGCUAAGGGGGCCUGGAAGUUUGGACUGGGCAGAGCUCAACACAGCGUGGCAAAGUGGCUGUGGCUAGACUGCCACUCUGGAUUCCUCGCCACUCAGCAGGGCAUCUCUGAGAGAAAUGCC, the self-cleavage was found to be 1.22.

Consider UACGUAGGUGGUUUUCCCCUGAUAGUGCUAAGGGGGCCUGGAAGUUUGGACUGGGCAGAGCUCAACACAGCGUGGCAAAGUGGCUGUGGCUAGACUGCCCCUUUGGAUUCCUCGUCACUCAGCAGGGCAUCUCUGAGAGAAAUGCC, for which the self-cleavage was 1.65.

Consider UACGUAGGUGGUUUUCCCCUGAUAGUGCUAAGGGGGCCUGGAAGUUUGGACUGGGCAGAGCUCAACACAGCGUGGCAAAGUGGCUGUGGCUAGACUGCCCCUAUGGAUUCCUCGUCACUCAGCAGGGCAUCUCUGAGAGAAAUGCC, for which the self-cleavage is 0.85.

As to UACGUAGGUGGUUUUCCCCUGAUAGUGCUAAGGGGGCCUGGAAGUUUGGACUGGGCAGAGCUCAACACAGCGUGGCAAAGUGGCUGUGGCUAGACUGCCCCUCUGGAUUCCUCGUCACUCAGCAGGGUAUCUCUGAGAGAAAUGCC, the self-cleavage came out at 1.58.

For UACGUAGGUGGUUUUCCCCUGAUAGUGCUAAGGGGGCCUGGAAGUUUGGACUGGGCAGAGCUCAACACAGCGUGGCAAAGUGGCUGUGGCUAGACUGCCACUCUGGAUUCCUCGUCACUCAGCAGGGCUUCUCUGAGAGAAAUGCC, the self-cleavage came out at 1.25.

Turning to UACGUAGGUGGUUUUCCCCUGAUAGUGCUAAGGGGGCCUGGAAGUUUGGACUGGGCAGAGCUCAACACAGCGUGGCAAAGUGGCUGUGGCUAGACUGCCACUCUGGAUUCCUCGUCACUCAGCAGGGCGUCUCUGAGAGAAAUGCC, the self-cleavage was 1.49.

As for UACGUAGGUGGUUUUCCCCUGAUAGUGCUAAGGGGGCCUGGAAGUUUGGACUGGGCAGAGCUCAACACAGCGUGGCAAAGUGGCUGUGGCUAGACUGCCACUCUGGAUUCCUCGUCACUCAGCAGGGCAUCUCUGAAAGAAAUGCC, the self-cleavage came out at 0.85.

As for UACGUAGGUGGUUUUCCCCUGAUAGUGCUAAGGGGGCCUGGAAGUUUGGACUGGGCAGAGCUCAACACAGCGUGGCAAAGUGGCUGUGGCUAGACUGCCACUCUGGAUUCCUCGUCACUCAGCAGGGCAUCUCUGAGAGAAGUGCC, the self-cleavage was 0.77.

In the case of UACGUAGGUGGUUUUCCCCUGAUAGUGCUAAGGGGGCCUGGAAGUUUGGACUGGGCAGAGCUCAACACAGCGUGGCAAAGUGGCUGUGGCUAGACUGCCACUCUGGAGUCCUCGUCACUCAGCAGGGCAUCUCUGAGAGAAAUGCC, the self-cleavage was found to be 0.

Take UACGUAGGUGGUUUUCCCCUGAUAGUGCUAAGGGGGCCUGGAAGUUUGGACUGGGCAGAGCUCAACACAGCGUGGCAAAGUGGCUGUGGCUAGACUGCCACCCUGGAUUCCUCGUCACUCAGCAGGGCAUCUCUGAGAGAAAUGCC: the self-cleavage worked out at 1.7.

For UACGUAGGUGGUUUUCCCCUGAUAGUGCUAAGGGGGCCUGGAAGUUUGGACUGGGCAGAGCUCAACACAGCGUGGCAAAGUGGCUGUGGCUAGACUGCCACACUGGAUUCCUCGUCACUCAGCAGGGCAUCUCUGAGAGAAAUGCC, the self-cleavage came out at 0.49.

Consider UACGUAGGUGGUUUUCCCCUGAUAGUGCUAAGGGGGCCUGGAAGUUUGGACUGGGCAGAGCUCAACACAGCGUGGCAAAGUGGCUGUGGCUAGACUGCCACUCUGGAUUCCUCGUCACUCAGCAGGGCAUCUCAGAGAGAAAUGCC, for which the self-cleavage was found to be 1.02.

For the variant UACGUAGGUGGUUUUCCCCUGAUAGUGCUAAGGGGGCCUGGAAGUUUGGACUGGGCAGAGCUCAACACAGCGUGGCAAAGUGGCUGUGGCUAGACUGCCCCUCUGGAUUCCUCGUCACUCAGCAGGGCAUCUCUGAGAGAAAUGCC, the self-cleavage is 1.79.

Regarding UACGUAGGUGGUUUUCCCCUGAUAGUGCUAAGGGGGCCUGGAAGUUUGGACUGGGCAGAGCUCAACACAGCGUGGCAAAGUGGCUGUGGCUAGACUGCCACUCUGGAUUCCUCGUCACUCAGCAGGGCAUCUCUGAGAGAAAAGCC, the self-cleavage was found to be 0.91.

Consider UACGUAGGUGGUUUUCCCCUGAUAGUGCUAAGGGGGCCUGGAAGUUUGGACUGGGCAGAGCUCAACACAGCGUGGCAAAGUGGCUGUGGCUAGACUGCCACUCUGGAUUCCUCGUCACUCAGCAGGGCAUCUCUGAGAGAAACGCC, for which the self-cleavage was determined as 0.86.

As to UACGUAGGUGGUUUUCCCCUGAUAGUGCUAAGGGGGCCUGGAAGUUUGGACUGGGCAGAGCUCAACACAGCGUGGCAAAGUGGCUGUGGCUAGACUGCCACUCUGGAUUCCUCGUCACUCAGCAGGGCAUCUCUGAGAGAAAUGCG, the self-cleavage is 1.26.

UACGUAGGUGGUUUUCCCCUGAUAGUGCUAAGGGGGCCUGGAAGUUUGGACUGGGCAGAGCUCAACACAGCGUGGCAAAGUGGCUGUGGCUAGACUGCCACUCUGGAUUCCUCGUCACUCAGCAGGGCAUCUCUGCGAGAAAUGCC: the self-cleavage was found to be 1.05.

Consider UACGUAGGUGGUUUUCCCCUGAUAGUGCUAAGGGGGCCUGGAAGUUUGGACUGGGCAGAGCUCAACACAGCGUGGCAAAGUGGCUGUGGCUAGACUGCCACUCCGGAUUCCUCGUCACUCAGCAGGGCAUCUCUGAGAGAAAUGCC, for which the self-cleavage came to 1.68.

Take UACGUAGGUGGUUUUCCCCUGAUAGUGCUAAGGGGGCCUGGAAGUUUGGACUGGGCAGAGCUCAACACAGCGUGGCAAAGUGGCUGUGGCUAGACUGCCACUCAGGAUUCCUCGUCACUCAGCAGGGCAUCUCUGAGAGAAAUGCC: the self-cleavage is 1.51.

UACGUAGGUGGUUUUCCCCUGAUAGUGCUAAGGGGGCCUGGAAGUUUGGACUGGGCAGAGCUCAACACAGCGUGGCAAAGUGGCUGUGGCUAGACUGCCCCUCUGGAUUCCUCGUCACUCAGCAGGGCAUCUCUGAGUGAAAUGCC: the self-cleavage was 1.51.

For the variant UACGUAGGUGGUUUUCCCCUGAUAGUGCUAAGGGGGCCUGGAAGUUUGGACUGGGCAGAGCUCAACACAGCGUGGCAAAGUGGCUGUGGCUAGACUGCCCCUCUGGAUUCCUCGUCACUCAGCAGGGCAUCUCUGAGAGAAGUGCC, the self-cleavage was 1.93.
